Assay results taken from US20220347267A1, “METHODS TO IMPROVE PATIENT RESPONSE TO IMMUNE CHECKPOINT INHIBITORS AND FUNCTIONAL TESTS TO PREDICT RESPONSE” (Biomarker Strategies, LLC, priority 2019, published 2022).

Key:
Assay in all cases: PD-L1 flow cytometry, IFNγ modulation
Assay type in all cases: cell-based, human
H1299 cells = system: H1299 cells
Protocol: (§1) Samples (150 uL per tube) were first incubated with a blocking reagent at 1:20 for 15 min at room temperature. Alexa 488-conjugated PD-L1 antibody (CST cat #25048, Lot #2) and Alexa 488-conjugated isotype antibody (CST cat #2975, Lot #16) were added to experimental samples and isotype control samples, respectively, at a manufacturer recommended dilution of 1:50 and the samples were incubated for 30 min at room temperature. Other fluorophore-conjugates and PD-L1 antibodies, including those targeting different epitopes, can be readily used. Additionally, antibodies detecting other biomarkers with appropriate processing (e.g. permeabilization of cells) to predict response (e.g. p-STAT-1) can be used. Following the incubation with an antibody, 1 mL of 2% FBS in PBS was added to each tube to dilute the antibody. Samples were then centrifuged at 200 rcf for 5 min. Supernatant was carefully aspirated and 200 uL of 10% neutral buffered formalin (NBF) was added. Samples were then fixed for 10 min at room temperature. NBF was diluted with 1 mL of 2% FBS in PBS and the samples were centrifuged at 200 rcf for 5 min. Supernatant was aspirated and the cells were resuspended in 0.5 mL of 2% FBS in PBS for flow cytometric analysis. In this experiment, 10% NBF was used to fix cells, but other fixatives, for example, 4% paraformaldehyde can be used.
(§2) Flow cytometry was performed using BDTM LSR II cytometer and BD FACSDiva™ data acquisition software. Any commercially available flow cytometry analysis software can be used, such as FlowJo (BD) and FCS Express (De Novo Software). Additionally, other flow cytometry instruments can be readily used. A total of 20,000 events were recorded for each sample. A Scatter gate was first applied, and a singlet gate was then applied on the scatter population to exclude doublet population. A 488 nm blue laser and a 530 nm detector were used to capture PD-LL signal. Any signal above the isotype control signal of the singlet population was considered PD-L1+(see FIG. 33). Though it was excluded from this experiment, cell viability can be assessed, and dead cells excluded from analysis, using stains such as Live/Dead™ Fixable Dead Cell Stain (Thermo) for fixed cells, or either 7-AAD (7-Aminoactinomycin D) or Propidium Iodide for unfixed cells.
(§3) A percent change in PD-L1+ events between Untreated (non-modulated; vehicle control) and Treated (modulated with IFNγ) samples was calculated for each of the four cell lines tested (Table 2). […] A percent change in PD-L1 signal between Untreated and Treated samples was calculated for each of the four cell lines tested. […] The mean PD-L1 signal was used to calculate the percent change, however, median (as shown in FIGS. 34A-34H), geometric mean, mode or any other averaging method can also be used. To assess the difference in PD-L1 expression level or number of PD-L1+ events between Treated and Untreated samples, either a percent change or fold change can be calculated. Differences in PD-L1 expression level can also be assessed between a control sample with a known PD-L1 level and a clinical sample with an unknown PD-L1 level. To do so, the assay result of modulated and unmodulated clinical samples should be normalized to that of a control sample. A percent change or fold change between modulated and unmodulated samples can then be calculated using the normalized values. Baseline PD-L1 levels, as well as changes to PD-L1 upon modulation, can be used to predict response to therapy. As mentioned in the Methods section above, the antibody against PD-L1 used in this experiment targets extracellular portion of the PD-L1 molecule and as such, permeabilization was not performed. Antibodies such as those that target other PD-L1 domains would yield different PD-L1 expression patterns depending on the form(s) of PD-L1 present in the cell lines tested. Flow cytometry cannot detect PD-L1 molecules that are already secreted and not bound to other cell surfaces proteins. […]

H1650 cells = system: H1650 cells
Protocol: as §1, §2, §3

H460 cells = system: H460 cells
Protocol: as §1, §2, §3

SKMES1 cells = system: SKMES1 cells
Protocol: as §1, §2, §3

[1] = modulated with IFNγ, 20,000 events recorded

B1: IFNγ: human IFNγ, modulator (10 ng/ml; Sigma Aldrich) (protein, UniProt P01579 24-161, looked up)
Interferon gamma: QDPYVKEAENLKKYFNAGHSDVADNGTLFLGILKNWKEESDRKIMQSQIVSFYFKLFKNFKDDQSIQKSVETIKEDMNVKFFNSNKKKRDDFEKLTNYSVTDLNVQRKAIHELIQVMAELSPAAKTGKRKRSQMLFRG
Mean PD-L1 signal in Singlets, % change (Treated - Untreated)/Untreated (H1299 cells; IFNγ treated vs untreated): 24%
Mean PD-L1 signal in Singlets, Fold change (Treated/Untreated) (H1299 cells; IFNγ treated vs untreated): 1.24
Number of Events in PD-L1 + population, % change (Treated - Untreated)/Untreated (H1299 cells; IFNγ treated vs untreated): 71%
Number of Events in PD-L1 + population, Fold change (Treated/Untreated) (H1299 cells; IFNγ treated vs untreated): 1.71
Mean PD-L1 signal in Singlets, Treated (H1299 cells; modulated with IFNγ): 538
Number of Events in PD-L1 + population, Treated (H1299 cells; [1]): 3462
Mean PD-L1 signal in Singlets, % change (Treated - Untreated)/Untreated (H1650 cells; IFNγ treated vs untreated): 63%
Mean PD-L1 signal in Singlets, Fold change (Treated/Untreated) (H1650 cells; IFNγ treated vs untreated): 1.63
Number of Events in PD-L1 + population, % change (Treated - Untreated)/Untreated (H1650 cells; IFNγ treated vs untreated): 266%
Number of Events in PD-L1 + population, Fold change (Treated/Untreated) (H1650 cells; IFNγ treated vs untreated): 3.66
Mean PD-L1 signal in Singlets, Treated (H1650 cells; modulated with IFNγ): 714
Number of Events in PD-L1 + population, Treated (H1650 cells; [1]): 5883
Mean PD-L1 signal in Singlets, % change (Treated - Untreated)/Untreated (H460 cells; IFNγ treated vs untreated): 20%
Mean PD-L1 signal in Singlets, Fold change (Treated/Untreated) (H460 cells; IFNγ treated vs untreated): 1.20
Number of Events in PD-L1 + population, % change (Treated - Untreated)/Untreated (H460 cells; IFNγ treated vs untreated): 4%
Number of Events in PD-L1 + population, Fold change (Treated/Untreated) (H460 cells; IFNγ treated vs untreated): 1.04
Mean PD-L1 signal in Singlets, Treated (H460 cells; modulated with IFNγ): 1646
Number of Events in PD-L1 + population, Treated (H460 cells; [1]): 13382
Mean PD-L1 signal in Singlets, % change (Treated - Untreated)/Untreated (SKMES1 cells; IFNγ treated vs untreated): 22%
Mean PD-L1 signal in Singlets, Fold change (Treated/Untreated) (SKMES1 cells; IFNγ treated vs untreated): 1.22
Number of Events in PD-L1 + population, % change (Treated - Untreated)/Untreated (SKMES1 cells; IFNγ treated vs untreated): 3%
Number of Events in PD-L1 + population, Fold change (Treated/Untreated) (SKMES1 cells; IFNγ treated vs untreated): 1.03
Mean PD-L1 signal in Singlets, Treated (SKMES1 cells; modulated with IFNγ): 4228
Number of Events in PD-L1 + population, Treated (SKMES1 cells; [1]): 1772
